The RNAGym collection of RNA variant scans (doi:10.1073/pnas.2313332121)

B1: TPR t1 (parent)
chain: GACCAAUCUGCCCUCAGAGCUCGAGAACAUCUUCGGAUGCAGAGGAGGCAGGCUUCGGUGGCGCGAUAGCGCCAACGUCCUCAACCUCCAAUGCAUCCCACCACAUGAUGAUGCCUGAAGAGCCUUGGUUUUUUG

Variants of: B1
Test: polymerase ribozyme fitness, log enrichment relative to wild type (log ratio); higher = more active; in vitro selection for triplet polymerase activity
Summary of the method: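 Mutant libraries were PCR-built and transcribed for each subunit of a heterodimeric triplet polymerase ribozyme and selected for one round in triplicate at −7 °C, frozen, before gel excision of extended constructs and streptavidin-bead capture. Input and output libraries were Illumina-sequenced, keeping genotypes with ≥10 input reads and ≥1 read per output. Fitness is a logarithmic ratio of genotype to wild-type enrichment, in base 2, using inverse-variance-weighted replicate averages.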

Going from GACCAAUCUGUCCUCAGAGCUCGAGAACAUCUUCGGAUGCAGUGGAGGCAGGCUUCGGUGGCGCGAUAGCGCCAACGUCCUCAACCUCCAAUGCAUCCCACCACAUGAUGAUGCCUGAAGAGCCUUGGUUUUUUG [C11U A43U] to GACCAAUCUGUCCUCCGAGCUCGAGAACAUCUUCGGAUGCAGAGGAGGCAGGCUUCGGUGGCGCGAUAGCGCCAACGUCCUCAACCUCCAAUCCAUCCCACCACAUGAUGAUGCCUGAAGAGCCUUGGUUUUUUG [C11U A16C G93C], the “polymerase ribozyme fitness (log ratio)” value falls from -1.62 to -4.45.

First: GACCAAUCUGUCCUCAGAGCUCGAGAACAUCUUCGGAUGCAGGGGAGGCAGGCUUCGGUGGCGCGAUAGCGGCAACGUCCUCAACCUCCAAUGCAUCCCACCACAUGAUGAUGCCUGAAGAGCCUUGGUUUUUUG [C11U A43G C72G]
Second: GACCAAUCUGUCCUCAGAGCUCGAGAUCAUCUUCGGAUGCAGAGGAGGCAGGCUUCGGUGGCGCGAUAGCGCCAACGUCCUCAACCUCCAAUGCAUCCCACCACAUGAUGAUGCCUGAAAAGCCUUGGUUUAUUG [C11U A27U G120A U132A]
The “polymerase ribozyme fitness (log ratio)” value of the first is lower: -2.54 for the first, -1.47 for the second.

Compared with GACCAAUCUGUCCUCUGAGCUCGAGAACAUCUUCGGAUGCAGAGGAGGCAGGCUUCGGUGGCGCGAUAGCGCCAACGUCCUCAACCUCCAAUGCAUCCCACCACAUGAUGAAGCCUGAAGAGCCUUGGUUUUUUG [C11U A16U U112A], GACCAAUCUGUCCUCAGAGCUCGAGAACAUCUUCGGAUGCAGAGGAGGCUGGCUUCGGUGGCGCGAUAGUGCCAACGUCCUCAACCUCCAAUGCAUCCCACCACAUGAUGAUACCUGAAGAGCCUUGGUUUUUUG [C11U A50U C70U G113A] is lower in “polymerase ribozyme fitness (log ratio)” value: -0.434 for the first, -2.63 for the second.

Compared with GACCAAUCUGUCCUCAGAGCUCGAGAACAUCUUCGGAUGCAGUGGAGGCAGGCUUUGGUGGCGCGAUAGCGCCAACGUCCUCAACCUCCAAUGCAUCCCACCACAUGAUGAUGGCUGAAGAGCCUUGCUUUUUUG [C11U A43U C56U C114G G128C], GACCAAUCUGUCCUCAGAGCUCGAGAACAUCUUCGGUUGCAGAGAAGGCAGGCUUCGGUGGCGCGAUAGCGCCAACGUCCUCAACCUCCAAUGCAUCCCACCACAUGAUGAUGCCUGAAGAGCCUUGGUUUUUUG [C11U A37U G45A] is higher in “polymerase ribozyme fitness (log ratio)” value: -5.28 for the first, -1.81 for the second.

Compared with GACCAAUCUGUCCUCAGAGCUCGGGAACAUCUUCGGAUGCAGAGGAUGCAGGCUUCGGUGGCGCGAUAGCGCCAACUUCCUCAACCUCCAAUGCAUCCCACCACAUGAUGAUGCCCGAAGAGCCUUGGUUUUUUG [C11U A24G G47U G77U U116C], GACCAAUCUGUCCUCAGAGCUCGAGAUCAUCUUCGGAUGCAGAGGAGGCAGGCUUCGGUGGCGCGAUAGCUCCAACGUCCUCAACCUCCAAUGCAUCCCAGCAUAUGAUGCUGCCUGAAGAGCCUUGGUUUUUUG [C11U A27U G71U C101G C104U A111C] is higher in “polymerase ribozyme fitness (log ratio)” value: -7.91 for the first, -6.17 for the second.

Compared with GACCAAUCUGUCCUCAGAGCUCGAGAACAUCUUCGGAUGCGGAGGAGGCAGGCUUGGGUGGCGCGAUAGCGCCAACGUCCUCAACCUCCAAUGCAUCCCACCACAUGAUGAUGCCUGAAGAGCAUUGGUUUUUUG [C11U A41G C56G C124A], GACCAAUCUGUCCUCAGAGCUCGAGAACAUCUUCGGUUGCAGAGGAGGCAGGCUCCGGUGGCGCGAUAGCGCCAACGUCCUCAACCUCCAAUGCAUCCCACCACAUGAUGAUGCCUGAAGAGCCUUGGUUUUUUG [C11U A37U U55C] is lower in “polymerase ribozyme fitness (log ratio)” value: 1.04 for the first, -1.28 for the second.

First: GACCAAUCUGUCCUCAGAGCUCGAGAACUUCUUCGGAUGCAGAGGAGGCAGGCUUCGGUGGCGCGAUAGCGCCAACGUCCUCAACCUCCAAUGCAUCCCACCACAUGAUGAUGCCUGAAGAGCCUUGGUUUUUUG [C11U A29U]
Second: GACCAAUCUGUCCUCAGAGCUCGAGAACCUCUUCGGAUGCAGAGGAGGCAGGCUUCGGUGGCGCGAUAGCGCCAACGUCCUCAACCUCCAAUGCAUCCCACCACAUGAUGAUGCCUGAAGAGCCUUGGUUUUUUG [C11U A29C]
The “polymerase ribozyme fitness (log ratio)” value of the first is higher: -2.46 for the first, -3.12 for the second.

Compared with GACCAAUCUGUCCUCAGUGCUCGAGAACAUCUUCGGAUGCAGAGGAGGCAGGCUUCGGUGGCGCGAUAUCGCCAACGUCCUCAACCUCCAAUGCAUCCCACCACAUGAUGAUGCCUGAAGAGCCUUGGUUUUUUG [C11U A18U G69U], GACCAAUCUGUCCUCAGAGCUCGAGUACAUCUUCGGAUGCAGAGGAGGCAGCCUUCGGUGGCGCGAUAGCGCCAACGUCCUCAACCUCCAAUGCAUCCCACCACAUGAUGAUGCCUGAAGAGCCUUGGUUUUUUG [C11U A26U G52C] is lower in “polymerase ribozyme fitness (log ratio)” value: -0.642 for the first, -3.53 for the second.

Going from GACCAAUCUGUCCUCAGAGCUCGAGUACAUCUUCGGAUGCAGAGGAGGGAGGCUUCGGUGGCGCGAUAGCGCCAACGUCCUCAACCUCCAAUGCAUCCCACCACAUGAUGAUGCCUGAAGAGCCUUGGUUUUUUG [C11U A26U C49G] to GACCAAUCUGUCCUCAGAGCUCGAGAACAUCUUCGGAUGCAGAGGAGGCUGGCUUCGGUGGCGCGAUAGCGCCAACGUCCUCAACCUUCAAUGCAUCCCACCACAUGAUGAUGCCUGAAGAGCCUUGGUUUUUUG [C11U A50U C88U], the “polymerase ribozyme fitness (log ratio)” value rises from -3.4 to -1.26.

Going from GACCAAUCUGUCCUCAGAGCUCGAGAACAUCUUCGGAUGCAGAGGAGGCGGGCUUCGGUGGCGCGAUAGCGCCAACGUCCUCAACCUCCAAUGCAUCCCACCACAUGAUGAUGCCUGAAGAGCCUUGGUUUUUUG [C11U A50G] to GACCAAUCUGUCCUCAGUGUUCGAGAACAUCUUCGGAUGCAGAGGAGGCAGGCUUUGGUGGCGCGAUAGCGCCAACGUCCUCAACCUCCAAUGCAUCCCAACACAUGAUGAUGCCUGAAGAGCCUUGGUUUUUUG [C11U A18U C20U C56U C101A], the “polymerase ribozyme fitness (log ratio)” value falls from -0.405 to -3.06.

For GACCAAUCUGUCCUCAGAGCUCGAGAACAUCUUCGGCUGCAGAGUAGGCAGGCUUCGAUGGCGCGAUAGCGCCAACGUCCUCAACCUCCAAUGCAUCCCACCACAUGAUGAUGCCUGAAGAGCCUUGGUUUUUUG [C11U A37C G45U G58A], the “polymerase ribozyme fitness (log ratio)” value was -2.72.
